Measured values as given in patent US20210292393A1 (published 2021).

What was measured:
[1] = target: SARS-CoV-2 full length spike protein, D614G mutant (SARS-CoV-2, UniProt P0DTC2 14-1273)
[2] = target: SARS-CoV-2 full length spike protein, V367F mutant (SARS-CoV-2, UniProt P0DTC2 14-1273)
[3] = target: SARS-CoV-2 full length spike protein, V367F mutant, expressed on CHO cells (SARS-CoV-2, UniProt P0DTC2 14-1273)
[4] = target: SARS-CoV-2 full length spike protein, D614G mutant, expressed on CHO cells (SARS-CoV-2, UniProt P0DTC2 14-1273)
[5] = target: T1, SARS-CoV-2 full length spike protein, V483A mutant, expressed on the surface of CHO cells (SARS-CoV-2, UniProt P0DTC2 14-1273); assay: flow cytometry, CHO cells expressing full-length spike V483A
T1 construct: also called SARS-CoV-2 V483A mutant

[6] = target: T2, SARS-CoV-2 full length spike protein, V483A mutant (SARS-CoV-2, UniProt P0DTC2 14-1273); assay: as above
T2 construct: also called SARS-CoV-2 V483A mutant

[7] = target: SARS-CoV-2 full length spike protein, D614G mutant, expressed on CHO cells (SARS-CoV-2, UniProt P0DTC2 14-1273); assay: flow cytometry on CHO cells expressing spike D614G
[8] = target: T3, SARS-CoV-2 full length spike protein, V483A mutant, expressed on CHO cells (SARS-CoV-2, UniProt P0DTC2 14-1273); assay: flow cytometry on CHO cells expressing spike V483A
T3 construct: also called SARS-CoV-2 V483A mutant

[9] = target: T4, SARS-CoV-2 full length spike protein, V367F mutant, expressed on CHO cells (SARS-CoV-2, UniProt P0DTC2 14-1273); assay: flow cytometry on CHO cells expressing spike V367F
T4 construct: also called SARS-CoV-2 V367F mutant

[10] = target: T3, SARS-CoV-2 full length spike protein, …
[11] = target: T5, SARS-CoV-2 full length spike protein, V367F mutant (SARS-CoV-2, UniProt P0DTC2 14-1273); assay: flow cytometry, CHO cells expressing full-length spike V367F
T5 construct: also called SARS-CoV-2 V367F mutant

[12] = target: T1, SARS-CoV-2 full length spike protein, …

B1: antibody 585 (antibody, V domains shown)
VH: QVQLVESGGGVVQPGRSLRLSCAASGFTFATYAMHWVRQAPGKGLEWVALISHDGSNKHYADSVKGRFTISRDNSKKTLYLQMNSLRAEGTAIYYCARESLEAAAPPFDYWGQGTLVTVSS
VL: SYELTQPPSVSVSPGQTATIICSGDKLGEKYASWYQQKPGQSPALVIYQDRKRPSGIPERFSGSNSGNTATLTISGTQAMDEADYYCQAWDSSNSVVFGGGTKLTVP
median fluorescence intensity, fold over isotype control [1]: 7.49 fold over isotype | median fluorescence intensity, fold over isotype control [2]: 33 fold over isotype

B2: antibody 508 (antibody, V domains shown)
VH: EVQLVQSGAEVKKPGATVKISCKVSGYTFTDYYMHWVQQAPGKGLEWMGLVDPEDGETIYAEKFQGRVTITADTSTDTAYMELSSLRSEDTAVYYCAVENMITFGGVIVKRGAFDIWGQGTMVTVSS
VL: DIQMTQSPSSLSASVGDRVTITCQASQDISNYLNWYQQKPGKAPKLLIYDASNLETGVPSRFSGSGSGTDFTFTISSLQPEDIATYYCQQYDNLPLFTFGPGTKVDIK
median fluorescence intensity, fold over isotype control [3]: 2.71 fold over isotype | median fluorescence intensity, fold over isotype control [4]: 3.99 fold over isotype

B3: antibody 332 (antibody, V domains shown)
VH: QVTLRESGPALVKPTQTLTLTCTFSGFSLSTSGMCVSWIRQPPGKALEWLALIDWDDDKYYSTSLKTRLTISKDTSKNQVVLTMTNMDPVDTATYYCARIHDDILTGYHYVDYWGQGTLVTVSS
VL: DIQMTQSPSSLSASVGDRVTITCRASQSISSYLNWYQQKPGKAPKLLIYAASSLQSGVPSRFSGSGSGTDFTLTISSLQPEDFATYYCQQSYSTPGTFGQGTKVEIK
binding result [5]: no binding

B4: antibody 343 (antibody, V domains shown)
VH: QVQLVESGGDVVQPGTSLRLSCAASGFTFNNYGFHWVRQAPGKGLEWVALISSDGASTHYADSVKGRFTISRDSSVNTLYLQMNSLSLEDTAVYYCATGHCGTTCYYFDYWGQGTLVSVSS
VL: DIQVTQSPSYLSASVGDRVTITCRASQTISTFLQWYQQKVGKAPKLLIYAASTLQSGVPSRFSGSGSGTDFSLTISSLQPEDFATYYCQQSYSAPLSFGGGTKVEIK
binding result [5]: no binding

B5: antibody 482 (antibody, V domains shown)
VH: EVQLVESGGGLVQPGGSLRLSCAASGFTFSSYWMTWVRQAPGKGLEWVANIKQDGSEKYYVDSVKGRFTISRDNAKNSLYLQMNSLRAEDTAVYYCARGVGSWYLGFDYWGQGTLVTVSS
VL: NFMLTQPHSVSESPGKTVTISCTGSSGSIASNYVQWYQQRPGSAPTTVIYEDNQRPSGVPDRFSGSIDSSSNSASLTISGLKTEDEADYYCQSYDGSSYVFGTGTKVTVL
median fluorescence intensity, fold over isotype control [3]: 2.89 fold over isotype | median fluorescence intensity, fold over isotype control [4]: 14.3 fold over isotype

B6: antibody 443 (antibody, V domains shown)
VH: QMRLEESGPGLVKPSETLSLTCTVAGGSITSSDYFWGWLRQSPGKGLEWIASTYHGGSIQYHPALKSRVTISVDASKNQISLRLSSVTAADTAVYYCARDRGDDGPMGTYYFDHWGQGALVTVSS
VL: QSVLTQPPSVSGAPGQSVTISCAGSSSNIGAGHDVHWYQQIPGTAPKLLICGNTNRPSGVPERFSGSRSGTSASLAITGLQAEDEAVYYCQSYDPSHVFFGTGTKLTVL
binding result [6]: no binding

B7: antibody 377 (antibody, V domains shown)
VH: EVQLVESGGGLVKPGGSLRLSCATSGFTFRTYSMNWVRQAPGKGLEWVSSITTSRNYIYYADSVRGRFTISGDNANNSLYLQMNSLRAEDTAVYYCARVRFVRDTRKPYYFDFWGQGTLVTVSS
VL: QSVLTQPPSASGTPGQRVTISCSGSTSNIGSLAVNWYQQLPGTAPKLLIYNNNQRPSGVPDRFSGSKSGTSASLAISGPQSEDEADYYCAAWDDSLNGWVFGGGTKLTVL
binding result [7]: no binding | binding result [8]: no binding | binding result [9]: no binding | median fluorescence fold over isotype control [10]: 1.09 fold over isotype

B8: antibody 432 (antibody, V domains shown)
VH: QVQLQESGPGLVKPSQTLSLTCTVSGGSISSGGYYWNWIRQHPGKGLEWIGYIYDSGSTYYNPSLKSRLTLSIDTSQNQFSLRRTSVTAADTAVYYCARGRQYDYDRTGLQYYFDYWGQGTLVTVSS
VL: EIVLTQSPGTLSLSPGERATLSCRASQSFSSSYLAWYQQKPGQAPRLLIYGASSRATGIPDRFSGSGSGTDFTLTISRLEPEDFAVYYCQQYGTSSLTFGGGTKVEIK
binding result [11]: no binding | binding result [6]: no binding

B9: antibody 341 (antibody, V domains shown)
VH: QLQLQESGPGLVKPSETLSLTCTVSGGSISSSSYYWGWIRQPPGKGLEWIGSIYYSGSTYYNPSLKSRVTISVDTSKNQFSLKLSSVTAADTAVYYCARRPLRYFDWLTNFDYWGQGTLVTVSS
VL: EIVLTQSPATLSLSPGERATLSCRASQSVSSYLAWYQQKPGQAPRLLIYDASNRATGIPARFSGSGSGTDFTLTISSLEPEDFAVYYCQQRSNWPITFGQGTRLEIK
median fluorescence intensity, fold over isotype control [12]: 1.01 fold over isotype | binding result [5]: no binding

B10: antibody 380 (antibody, V domains shown)
VH: QVQLVESGGGVVQPGRSLRLSCAASGFTLKNYGMHWVRQAPGKGLEWVIVLSFDGSDEYKADSVRGRFTVSRDNSKNTLFLQMNSLRPDDTAVYYCAREQPTMIEGGRGPFDIWGQGTMVTVSS
VL: EVVMTQSPATLSVSPGDRATLSCRASQGVNSNLAWYQQKPGQAPRLLIYAASTRATGIPARFSASGSGTHFTLTISSLQSEDFAVYYCLQYNNWPPWTFGQGTKLEIK
binding result [8]: no binding

B11: antibody 467 (antibody, V domains shown)
VH: QVQLVQSGAEVKKPGASVKVSCKASGYTFISYGISWVRQAPGQGLEWMGWISAYNGNTNYAQKLQGRVTMTTDTSTSTAYMELRSLRSDDTAVYYCARGLWPGYYYGSGSYSAFHIWGQGTMVTVSS
VL: QSALTQPPSASGSPGQSVSISCTGTSSDVGGYNYVSWYQQHPGKAPKLMIYEVSKRPSGVPDRFSGSKSGNTASLTVSGLQAEDEADYYCSSYAGSNKVFGGGTKLTVL
median fluorescence intensity, fold over isotype control [3]: 30.6 fold over isotype | median fluorescence intensity, fold over isotype control [4]: 7.54 fold over isotype

B12: antibody 333 (antibody, V domains shown)
VH: QVHLVESGGGVVLPGRSLRLSCSASQFIFSNYDMHWVRQSPGMGLEWVAGISSDGSDKYYIDSVRGRFTISRDNAKNTLFLQMNSLTTEDTAVYSCAKGGGKFGQYWGRGTLVTVSS
VL: AIQMTQSPSSLSASVGDRVTITCRASQVIRNDLAWFQQKPGEAPNLLVYSASNLQSGVPSRFSGSGSGTDFTLTISSLQPEDFATYYCLQDYSYPYTFGQGTKLDMK
binding result [5]: no binding

B13: antibody 434 (antibody, V domains shown)
VH: QVQLVQSGAEVKKPGASVQVSCKASGYTFSDYYIFWVRQAPGQGLEWMGCINPKSGGAIYAQRFQGRVTMTRDTSFNTAYMEMNRLGSDDTAVYYCVTRGPPDIAASGFAWHLDVWGQGTTVTVSS
VL: DIVMTQSPLSLPVTPGEPASISCRSSQSLLSSNGYNYLEWYLQKPGQSPQLLMYLGSNRASGVPDRFSGSGSGTDFTLKINRVEAEDVGVYYCMQALQTPLTFGGGTKVEIK
binding result [6]: no binding

B14: antibody 506 (antibody, V domains shown)
VH: QITLKESGPTLVKPTQTLTLTCTFSGFSLSTSGVGVGWIRQPPGKALEWLALIYWDDDKRYSPSLKSRLTITKDTSKNQVVLTMTNMDPVDTATYYCAHHSLSSIFDYWGQGTLVTVSS
VL: QSALTQPASVSGSPGQSITISCTGTSSDVGDYNYVSWYQQHPGKAPKLMIYEVSNRPSGVSNRFSGSKSGNTASLTISGLQAEDEADYYCSSYTSSSTVFGGGTKLTVLG
median fluorescence intensity, fold over isotype control [3]: 42.3 fold over isotype | median fluorescence intensity, fold over isotype control [4]: 69.5 fold over isotype

B15: antibody 502 (antibody, V domains shown)
VH: QVQLVQSGAEVKKPGASVKVSCKASGYTFTSYYMHWVRQAPGQGLEWMGIINPSGGSTSYAQKFQGRVTMTRDTATSTVYMELSSLRSEDTAVYYCARGGGQISMIIVVMDDAFDIWGQGTMVTVSS
VL: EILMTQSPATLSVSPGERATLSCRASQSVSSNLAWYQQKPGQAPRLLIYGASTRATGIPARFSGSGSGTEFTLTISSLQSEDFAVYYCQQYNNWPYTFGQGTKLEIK
median fluorescence intensity, fold over isotype control [3]: 51.8 fold over isotype | median fluorescence intensity, fold over isotype control [4]: 77.3 fold over isotype

B16: antibody 465 (antibody, V domains shown)
VH: QITLKESGPTLVKPTQTLTLTCTFSGFSLSTSGVGVGWIRQPPGKALEWLALIYWDDDKHYSPSLKSRLTITKDTSKNQVVLTMTNMDPVDTATYYCAHMYYDILSGYYYGMDVWGQGTTVTVSS
VL: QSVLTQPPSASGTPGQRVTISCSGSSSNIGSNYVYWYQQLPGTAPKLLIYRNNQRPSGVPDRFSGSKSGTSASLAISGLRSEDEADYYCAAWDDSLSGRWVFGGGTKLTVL
median fluorescence intensity, fold over isotype control [3]: 37.3 fold over isotype | median fluorescence intensity, fold over isotype control [4]: 68.3 fold over isotype

B17: antibody 501 (antibody, V domains shown)
VH: QVQLVQSGAEVKKPGASVKVSCKASGYTFTSYYVHWVRQAPGQSLEWMGVISPSTGSTTYAQNFQGRVTMTRDTSTTTVYMELSSLRSEDTAVYYCARDDYYDSTRYFDLWGRGTLVTVSS
VL: QSALTQPASVSGSPGQSISFSCTGTSSDIGAYNYVSWYQQHPGRAPKLMIYDVGNRPSGVSNRFSGSKSGNTASLTISGLQAEDEADYYCSSYTSSSTQVFGTGTKVTVL
median fluorescence intensity, fold over isotype control [3]: 30 fold over isotype | median fluorescence intensity, fold over isotype control [4]: 46.1 fold over isotype

B18: antibody 351 (antibody, V domains shown)
VH: HVQLVESGGGVVQPGRSLRLSCAASGFISRNYGMEWVRQAPGQGLEWVAGIWYDGSKKYYADSVKGRFTISRDTSKNTLFLQMDSLRAEDTAVFYCATATKTFCGGDCPPGGMDVWGQGTTVTVST
VL: SYVLTQPPSVSVAPGKTAWITCVGNNIESESVHWYQQRPGQAPVLVIYYDSDRPSGIPERFFGSNSGNTATLTISRVEAGDEADYYCQVWDSNSDLMVFGGGTKLTVL
binding result [5]: no binding
